Laboratory results as given in PMC4156411.

Key:
Test in all cases: ELASA
Details in all cases: ELASA: VLPs 3 ug/ml coated, blocked with 5% skim milk in PBST plus unrelated DNA, 1 uM biotinylated aptamer (10 nM-2 uM for Kd), 1 h at RT, PBST washes
[1] = tested on: GII.7 VLP, major capsid protein (Human norovirus GII.7)
[2] = target: T1, GII.2 (SMV) VLP, major capsid protein (Human norovirus GII.2 (Snow Mountain virus)) (UniProt K7X601)
T1 sequence: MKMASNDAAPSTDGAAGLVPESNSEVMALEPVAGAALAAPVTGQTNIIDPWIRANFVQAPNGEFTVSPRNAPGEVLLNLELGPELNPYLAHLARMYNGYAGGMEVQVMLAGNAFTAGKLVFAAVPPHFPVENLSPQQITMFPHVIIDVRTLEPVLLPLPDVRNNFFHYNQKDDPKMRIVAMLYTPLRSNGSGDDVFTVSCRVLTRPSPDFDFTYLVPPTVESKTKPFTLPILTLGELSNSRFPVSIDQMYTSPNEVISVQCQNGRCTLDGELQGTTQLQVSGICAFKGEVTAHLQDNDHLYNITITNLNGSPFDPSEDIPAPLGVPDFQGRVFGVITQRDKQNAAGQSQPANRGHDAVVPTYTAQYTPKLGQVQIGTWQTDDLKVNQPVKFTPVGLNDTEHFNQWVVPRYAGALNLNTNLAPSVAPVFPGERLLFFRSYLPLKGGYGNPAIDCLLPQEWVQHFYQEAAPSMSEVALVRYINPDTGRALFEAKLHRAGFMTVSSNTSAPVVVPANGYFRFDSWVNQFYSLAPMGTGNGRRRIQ

[3] = tested on: GII.3 VLP, major capsid protein (Human norovirus GII.3)
[4] = tested on: GII.12 VLP, major capsid protein (Human norovirus GII.12)
[5] = tested on: GI.4 VLP, major capsid protein (Human norovirus GI.4)
[6] = tested on: GII.4 (Grimsby) VLP, major capsid protein (Human norovirus GII.4 (Grimsby virus))
[7] = tested on: GI.7 VLP, major capsid protein (Human norovirus GI.7)
[8] = tested on: GII.1 VLP, major capsid protein (Human norovirus GII.1)
[9] = tested on: GII.4 (Houston) VLP, major capsid protein (Human norovirus GII.4 (Houston))
[10] = tested on: GI.6 VLP, major capsid protein (Human norovirus GI.6)
[11] = tested on: GI.8 VLP, major capsid protein (Human norovirus GI.8)
[12] = tested on: GII.6 VLP, major capsid protein (Human norovirus GII.6)
[13] = tested on: GII.17 VLP, major capsid protein (Human norovirus GII.17)

Sequence | binding signal [1] | Kd [2] | binding signal [2] | binding signal [3] | binding signal [4] | binding signal [5] | binding signal [6] | binding signal [7] | binding signal [8] | binding signal [9] | binding signal [10] | binding signal [11] | binding signal [12] | binding signal [13]
AGTATACGTATTACCTGCAGCCATCTGTGTGAAGACTATATGGCGCTCACATATTTCTTTCCGATATCTCGGAGATCTTGC [SMV-25] | 9.1 T/N ratio | 232 nM | 12.4 T/N ratio | 5.4 T/N ratio | 1.9 T/N ratio | 5.6 T/N ratio | 10.4 T/N ratio | 3.5 T/N ratio | 9.4 T/N ratio | 11 T/N ratio | 2.4 T/N ratio | 6.2 T/N ratio | 7.3 T/N ratio | 2 T/N ratio
AGTATACGTATTACCTGCAGCCACCAGTGTGTTGAGGTTTGAGCACACTGATAGAGTGTCACGATATCTCGGAGATCTTGC [SMV-19] | 4 T/N ratio | 191 nM | 12.9 T/N ratio | 1.7 T/N ratio | 1.5 T/N ratio | 1.7 T/N ratio | 9.6 T/N ratio | 10.3 T/N ratio | 7.1 T/N ratio | 12.5 T/N ratio | 3.7 T/N ratio | 1.7 T/N ratio | 1.8 T/N ratio | 3 T/N ratio
AGTATACGTATTACCTGCAGCTGACCGAGTGTCTGGTCATTTTCGATGTCTGTTGTTAGGCCGATATCTCGGAGATCTTGC [SMV-26] | 2.8 T/N ratio | 281 nM | 4.1 T/N ratio | 2.4 T/N ratio | 2.4 T/N ratio | 1.1 T/N ratio | 3.2 T/N ratio | 1.8 T/N ratio | 2.1 T/N ratio | 2.8 T/N ratio | 1.5 T/N ratio | 1.2 T/N ratio | 2.8 T/N ratio | 1.3 T/N ratio
AGTATACGTATTACCTGCAGCCCATGTTTTGTAGGTGTAATAGGTCATGTTAGGGTTTCTGCGATATCTCGGAGATCTTGC [SMV-21] | 13.5 T/N ratio | 101 nM | 18.1 T/N ratio | 11.8 T/N ratio | 6.6 T/N ratio | 4.3 T/N ratio | 6.4 T/N ratio | 8.1 T/N ratio | 8.6 T/N ratio | 11.3 T/N ratio | 3.8 T/N ratio | 4.6 T/N ratio | 3 T/N ratio | 12.2 T/N ratio
